Molecular target: T1, UBP (Sulfolobus islandicus REY15A, UniProt F0NFD3 1-111)
T1 sequence: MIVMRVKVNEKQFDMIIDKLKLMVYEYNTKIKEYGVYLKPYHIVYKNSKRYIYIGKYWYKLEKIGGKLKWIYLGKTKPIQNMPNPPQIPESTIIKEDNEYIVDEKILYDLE
Experiment: thermal melting protection; 55-65 C, 50 mM NaCl; EMSA: 50 mM K-acetate, 20 mM Tris-acetate, 10 mM Mg-acetate, 1 mM DTT, pH 7.9, 5-10% glycerol, 70 mM NaCl, 800 ng salmon sperm DNA per 10 ul, room temperature 10 min; footprinting same buffer, 4% glycerol, 8000 ng salmon sperm DNA; pull-down 25 mM HEPES pH 7.5, 150 mM NaCl, 10 mM MgCl, 100 uM ZnCl, 10 mM DTT, 48 C
Conditions: protein: recombinant; tags: MBP tag removed by Factor Xa; 3 extra vector residues at N-terminus; chain copies: 2; label: 5'-32P; 40 bp duplex with 10 nt C overhangs at 5' and 3' of strand 2

B1: 40 bp duplex for melting (P19/P20) (dsDNA)
DNA 1: ATAATTAGATAACCATTATACAAAAGAATTGTATAAGAAT
DNA 2: CCCCCCCCCCATTCTTATACAATTCTTTTGTATAATGGTTATCTAATTATCCCCCCCCCC
B1: binds.

Reference: publication PMC12141716, “An archaeal nucleoid-associated protein binds an essential motif in DNA replication origins” (Nature Communications, 2025)
